These are literature values, as cited in article PMC7339208.

In general, Kd refers to the equilibrium constant for the complex coming apart.

One data set addresses IL-2 (Homo sapiens) (UniProt P60568).
The target of a further data set is IL-15 (Homo sapiens) (UniProt P40933).
Chain of UniProt P40933 (P40933 49-162): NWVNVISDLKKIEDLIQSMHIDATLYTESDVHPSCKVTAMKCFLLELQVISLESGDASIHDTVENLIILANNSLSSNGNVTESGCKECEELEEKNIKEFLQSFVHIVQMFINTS

Chain of UniProt P60568 (P60568 21-153): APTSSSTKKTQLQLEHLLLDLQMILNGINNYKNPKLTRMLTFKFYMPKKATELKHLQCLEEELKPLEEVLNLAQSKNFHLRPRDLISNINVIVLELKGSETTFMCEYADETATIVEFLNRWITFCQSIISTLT

As for IL-2Rα (from UniProt P01589), in the data set with IL-2 (Homo sapiens), the dissociation constant (Kd) was 10 nM.
Regarding IL-15Rα (from UniProt Q13261), the dissociation constant (Kd) in the data set with IL-15 (Homo sapiens) is 0.1 nM.
